Reference: article PMC10948360
Each block holds one substance with its values, some of them ahead of it.

Experiments:
[1] = target: Full-length kinesin heavy chain (Khc FL), unlabeled (Drosophila) (UniProt P17210); test: mass photometry; coexpressed, copurified Khc–Tm1 complex at 20 nM in PBS
[2] = target: SNAP-tagged full-length kinesin heavy chain (Khc FL), Alexa Fluor 647-labeled (Drosophila) (UniProt P17210)
[3] = target: SNAP-tagged full-length kinesin heavy chain (Khc FL), Alexa Fluor 647-labeled (Drosophila) (UniProt P17210); test: single-molecule TIRF colocalisation and motility assay on microtubules; Khc RNP mixes assembled at 500 nM of each component, diluted to 6.25 nM in BRB12 with 2.5 mM MgATP; taxol-stabilized microtubules immobilized by biotin-streptavidin; Cy3-osk 3′ UTR present
[4] = target: SNAP-tagged full-length kinesin heavy chain (Khc FL), Alexa Fluor 647-labeled (UniProt P17210); test: as above; details: other: single-molecule TIRF colocalisation and motility assay on microtubules
Chain of SNAP-tagged full-length kinesin heavy chain (Khc FL), Alexa Fluor 647-labeled (P17210 whole entry): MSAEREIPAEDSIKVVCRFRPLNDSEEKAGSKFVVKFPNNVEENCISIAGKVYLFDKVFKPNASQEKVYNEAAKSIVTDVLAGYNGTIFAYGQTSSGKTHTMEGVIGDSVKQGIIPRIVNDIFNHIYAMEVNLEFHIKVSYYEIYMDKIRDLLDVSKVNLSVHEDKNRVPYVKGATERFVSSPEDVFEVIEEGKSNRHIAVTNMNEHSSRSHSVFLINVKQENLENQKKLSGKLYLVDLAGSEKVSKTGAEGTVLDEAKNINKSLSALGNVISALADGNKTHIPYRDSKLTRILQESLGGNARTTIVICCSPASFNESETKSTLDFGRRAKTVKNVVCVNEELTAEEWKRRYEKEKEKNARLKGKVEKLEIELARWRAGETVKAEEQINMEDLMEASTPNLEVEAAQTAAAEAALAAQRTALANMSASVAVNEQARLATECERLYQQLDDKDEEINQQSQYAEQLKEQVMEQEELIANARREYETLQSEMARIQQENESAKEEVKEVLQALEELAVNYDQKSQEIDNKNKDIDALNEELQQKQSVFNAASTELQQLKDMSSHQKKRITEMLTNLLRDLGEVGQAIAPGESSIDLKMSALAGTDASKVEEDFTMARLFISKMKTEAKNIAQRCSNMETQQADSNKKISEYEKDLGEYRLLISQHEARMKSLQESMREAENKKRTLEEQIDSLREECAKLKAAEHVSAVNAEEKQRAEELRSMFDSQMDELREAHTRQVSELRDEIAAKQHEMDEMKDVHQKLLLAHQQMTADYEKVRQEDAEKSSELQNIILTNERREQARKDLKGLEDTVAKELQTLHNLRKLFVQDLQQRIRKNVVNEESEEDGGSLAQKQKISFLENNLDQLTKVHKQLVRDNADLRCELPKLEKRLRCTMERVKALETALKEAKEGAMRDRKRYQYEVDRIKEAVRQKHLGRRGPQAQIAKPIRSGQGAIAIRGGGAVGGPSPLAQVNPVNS

Chain of SNAP-tagged full-length kinesin heavy chain (Khc FL), Alexa Fluor 647-labeled (Drosophila) (P17210 whole entry): as above
Chain of Full-length kinesin heavy chain (Khc FL), unlabeled (Drosophila) (P17210 whole entry): as above

stoichiometry N [1]: 2 Khc per Tm1
Substance: Full-length Tm1-I/C (Tm1 FL) coexpressed and copurified with Khc FL (natural protein)

mean velocity of microtubule-associated Khc FL complexes in the TIRF motility assay in the presence of Tm1 FL (0.240 µm s^−1 without Tm1) [2]: 0.099 µm s^−1 | percent of Khc signals colocalizing with Tm1 signals [3]: 44.6%
Substance: SNAP-tagged full-length Tm1-I/C (Tm1 FL), Alexa Fluor 488-labeled (natural protein)

Substance: SNAP-tagged full-length Tm1-I/C (Tm1 FL), Alexa Fluor 488-labeled
percent of Khc molecules bound to Tm1, corrected for the labeling efficiency of Tm1 [4]: ~95% of Khc molecules were bound to Tm1

percent of Khc signals colocalized with Tm1 signals [3]: 71%
Substance: SNAP-Tm1 1-335, fluorescently labeled (domain or fragment)
